Experiment [1] has as its target recombinant TcTS clone TcTS-12 (Trypanosoma cruzi (Cl-Brener strain)).
The target of experiment [2] is recombinant TcTS clone TcTS-15 (Trypanosoma cruzi (Cl-Brener strain)).
The target of experiment [3] is recombinant TcTS clone TcTS-24 (Trypanosoma cruzi (Cl-Brener strain)).
For experiment [4], the target named is recombinant TcTS clone TcTS-46 (Trypanosoma cruzi (Cl-Brener strain)).
For experiment [5], the target named is recombinant TcTS clone TcTS-49 (Trypanosoma cruzi (Cl-Brener strain)).
The target of experiment [6] is T1, recombinant Trypanosoma cruzi trans-sialidase TcTS611/2 (Trypanosoma cruzi, clone TcTS611/2 …, UniProt Q26966).
T1 construct: Trypanosoma cruzi trans-sialidase (TcTS), clone 611/2: entire globular core of TcTS without SAPA repeats; also called recombinant TcTS; pTrcTS611/2
Briefly: IAsys biosensor. The note with it: both partners purified.

Experiment [7] addresses T1, recombinant Trypanosoma cruzi …. As to the kind of experiment: cell-based or functional assay.
Experiment [8] has the same target. Briefly: far-Western, overlay or dot blot; 300 ng of each His-tagged VHH spotted on nitrocellulose, probed with native TcTS611/2, revealed with rabbit anti-TcTS serum and HRP secondary. The settings on record: both partners purified.

As usually defined, the Kd is the equilibrium constant for the complex coming apart. What is called koff is the rate constant with which the complex falls apart. By kon is commonly meant the rate constant with which the complex forms.

B1: VHHSI52 (VHH)
VHH: GGGLVQAGGSLRLSCAASGRTFYNYAMGWFRQAPGKEREFVAAISWSGGSTLYTDSVKGRFTISRANGQNTVYLQMNSLKPEDTAVYYCAADADAQPMGIIENYDYWGQG
notes: also called clone SI52; not shown: His6, C-terminal, kept
Consider B1, for which the other came to 57.2 % inhibition in experiment [1]; 68.7 % inhibition in experiment [2]; 98 % inhibition in experiment [3]; 38.9 % inhibition in experiment [4]; 49 % inhibition in experiment [5]; 81.3 % inhibition in experiment [7]. In addition, in experiment [6], the Kd was determined as 69 nM. Also, the koff in experiment [6] was 0.0103 s⁻¹. In addition, the on-rate constant (kon) in experiment [6] was found to be 149000 M⁻¹ s⁻¹.

B2: VHHSI96 (VHH)
VHH: GGGLVQAGGSLRLSCAASGPTFYNYAMGWFRQAPGKEREFVAAISWSGGSTYYADSVKGRFTISRANAHNTVYLQMNSLKPEDTAVYYCAADADAQPMGIIENYDYWGQG
notes: also called clone SI96; not shown: His6, C-terminal, kept
On to B2, for which the other in experiment [1] was 59.5 % inhibition; in experiment [2] it was 67.4 % inhibition; in experiment [3] it was 94.2 % inhibition; in experiment [4], 34.8 % inhibition; in experiment [5], 24.4 % inhibition; in experiment [7], 80.5 % inhibition. For the same molecule, the equilibrium dissociation constant (Kd) in experiment [6] came to 48.4 nM. Moreover, the koff in experiment [6] was 0.017 s⁻¹. For the same molecule, in experiment [6], the kon worked out at 352000 M⁻¹ s⁻¹.

B3: VHHSI14 (VHH)
VHH: GGGLVQAGGSLRLSCAASGRTFYNYAMGWFRQAPGKEREFVAAISWSGGSTLYADSVKGRFTISRANAQNTVYLQMNKLKPEDTAVYYCAADADAQPMGVIENYDYWGQG
notes: also called clone SI14; VHHS14; not shown: His6, C-terminal, kept
On to B3, for which, in experiment [6], the dissociation constant Kd amounted to 22.3 nM, the koff was determined as 0.00265 s⁻¹ and the kon stood at 119000 M⁻¹ s⁻¹.

B4: VHHSI57 (VHH)
VHH: GGGLVQAGGSLRLSCAASGRTLYNYAMGWFRQAPGKEREFVAAISWSGGSTEYADSVKGRFTISRANAQNKVYLQMNSLKPEDTAVYYCAADADAQPMGVIENYDYWGQG
notes: also called clone SI57; not shown: His6, C-terminal, kept
Regarding B4, the other in experiment [1] came out at 57.2 % inhibition; in experiment [2], 81.2 % inhibition; in experiment [3], 98.4 % inhibition; in experiment [4] it was 31.7 % inhibition; in experiment [5], 51.1 % inhibition; in experiment [7] it was 83.3 % inhibition. The dissociation constant (Kd) in experiment [6] amounted to 86.3 nM. Also, the koff in experiment [6] turned out to be 0.0143 s⁻¹. Further, the kon in experiment [6] amounted to 165000 M⁻¹ s⁻¹.

B5: VHH clone WI58 (VHH)
VHH: GGGLVQAGGSLRLSCAASGLTLGNYAMGWFRQAPGKERELVAAISWSGGSTYYPDSVKGRFTISRDNAKNTVYLQMNSLKPEDTAVYYCAADGQLVPLPRLSDGVDYWGKG
notes: not shown: His6, C-terminal, kept
On to B5, for which the binding result in experiment [8] is on record as “binds”.
